Data reported in PMC11427689, “Antagonistic nanobodies implicate mechanism of GSDMD pore formation and potential therapeutic application” (Nature Communications, 2024).

Columns and labels:
His-SUMO-GSDMD = molecular target: T1, His-SUMO-GSDMD (Homo sapiens, UniProt P57764); assay: ELISA; SUMO-GSDMD or SUMO in PBS immobilised on ELISA plates at 1 μg/mL overnight; HA-tagged nanobodies in 10% FBS/PBS, 10-fold dilution series from 100 nM to 1 pM; detected with anti-HA HRP and TMB; conditions: both partners purified
T1 construct: human gasdermin D (GSDMD), expressed from pET28 as His-SUMO-GSDMD; the recombinant protein is called full-length in the results; it was cleavable with the SUMO protease ULP1; also called gasdermin D; source: E. coli LOBSTR, purified (Ni-NTA, gel filtration); not shown: SUMO, N-terminal, kept
T1 sequence (P57764 whole entry): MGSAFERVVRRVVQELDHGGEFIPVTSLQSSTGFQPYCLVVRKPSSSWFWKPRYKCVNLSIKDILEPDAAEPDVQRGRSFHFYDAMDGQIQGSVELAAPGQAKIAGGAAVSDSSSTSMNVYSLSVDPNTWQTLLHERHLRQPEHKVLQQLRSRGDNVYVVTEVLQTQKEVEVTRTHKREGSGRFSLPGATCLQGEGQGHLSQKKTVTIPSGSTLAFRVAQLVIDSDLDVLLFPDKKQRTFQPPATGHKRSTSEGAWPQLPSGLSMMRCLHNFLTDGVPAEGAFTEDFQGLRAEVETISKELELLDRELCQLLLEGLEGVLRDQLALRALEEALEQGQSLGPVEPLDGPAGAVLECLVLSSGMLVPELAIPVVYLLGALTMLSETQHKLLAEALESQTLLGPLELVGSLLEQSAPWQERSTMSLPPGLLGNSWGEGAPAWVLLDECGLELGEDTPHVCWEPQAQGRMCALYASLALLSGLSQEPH

[1] = molecular target: T2, GSDMD^NT (N-terminal domain of gasdermin D released by caspase cleavage) (Homo sapiens (endogenous, THP-1), UniProt P57764); assay: non-reducing SDS-PAGE and immunoblot; PMA-differentiated THP-1 macrophages expressing HA-tagged nanobodies, stimulated with MxiH for 1 h; lysates in SDS-PAGE buffer without reducing agent; immunoblot with anti-GSDMD; conditions: partners not purified
T2 construct: also called processed GSDMD^NT; source: endogenous, lysate of PMA-differentiated THP-1 macrophages stimulated with MxiH
T2 sequence (P57764 whole entry, looked up, the tested form may be a part): as the sequence (P57764 whole entry) above

[2] = molecular target: T3, human GSDMD-Renilla luciferase fusion (Homo sapiens, UniProt P57764); assay: co-IP; LUMIER assay: HEK293T co-transfected with VHH-HA and Renilla luciferase fusions; lysis in 50 mM Hepes-KOH pH 7.9, 150 mM NaCl, 2 mM EDTA, 0.5% Triton X-100, 5% glycerol; VHH-HA captured on anti-HA-coated plates for one hour; luminescence of co-purified Renilla luciferase normalised to lysate; conditions: partners not purified
T3 construct: human gasdermin D (GSDMD) fused to Renilla luciferase; A GSDMD 4 A fusion was tested as well; also called Renilla-fused bait protein human GSDMD; source: HEK293T, transfected (pcDNA3.1-based vector), in lysate
T3 sequence (P57764 whole entry, the tested form may be a part): as the sequence (P57764 whole entry) above

Binder | binding result (His-SUMO-GSDMD) | binding result [2] | further results
VHH_(GSDMD-4) with C-terminal HA-His6 (VHH, pHEN6-based periplasmic expression vector, small scale (HA-His6); also called HA-His-tagged nanobody; source: E. coli WK6, periplasmic extract, purified (Ni-NTA, desalting); not shown: HA, C-terminal, kept; His6, C-terminal, kept) VHH: QVQLVESGGGLVQPGGSLRLSCAASGFTLDRHAIAWFRQAPGLEREGVVCTSSSGAITNTADSVKGRFTISRDDAKNTVYLQMNSLKPEDTAIYYCAVRELWTVQPICEPRPRAYAYWGQGTQVTVSS | binds | – | –
VHH_(GSDMD-2) with a C-terminal HA tag, expressed in THP-1 cells (VHH, Same nanobody as m3 and m12, other vector and host; also called VHH_(GSDMD-2)-HA; source: THP-1, lentiviral transduction, constitutive expression (pEF1α), in lysate; not shown: HA, C-terminal, kept) VHH: QVQLVESGGGLVQPGGSLRLSCVDSRSWINVYGANWYRQAPGKERELVAALTSGGTTNYADSVKGRFTISRDNAKNTVYLQMRDLKPEDTAVYYCNLERYTGSSVYPWGQGTQVTVSS | – | – | binding result [1]: binds
VHH_(GSDMD-2) with C-terminal HA-His6 (VHH, pHEN6-based periplasmic expression vector, small scale (HA-His6); also called HA-His-tagged nanobody; source: E. coli WK6, periplasmic extract, purified (Ni-NTA, desalting); not shown: HA, C-terminal, kept; His6, C-terminal, kept) VHH: QVQLVESGGGLVQPGGSLRLSCVDSRSWINVYGANWYRQAPGKERELVAALTSGGTTNYADSVKGRFTISRDNAKNTVYLQMRDLKPEDTAVYYCNLERYTGSSVYPWGQGTQVTVSS | binds | – | –
VHH_(GSDMD-2)-HA (VHH, also called VHH-HA; source: HEK293T, transfected (pCAGGS VHH-HA), in lysate; not shown: HA, C-terminal, kept) VHH: QVQLVESGGGLVQPGGSLRLSCVDSRSWINVYGANWYRQAPGKERELVAALTSGGTTNYADSVKGRFTISRDNAKNTVYLQMRDLKPEDTAVYYCNLERYTGSSVYPWGQGTQVTVSS | – | binds | –
VHH_(GSDMD-3) with C-terminal HA-His6 (VHH, pHEN6-based periplasmic expression vector, small scale (HA-His6); also called HA-His-tagged nanobody; source: E. coli WK6, periplasmic extract, purified (Ni-NTA, desalting); not shown: HA, C-terminal, kept; His6, C-terminal, kept) VHH: QVQLVETGGGLVQPGGSLRLSCAASGFTLDIYNMGWFRQAPGKEREGVSCISSRYGTSTYYADSVKGRFTISRDNAKNTVYLQMNNLKPEDTAVYYCATVSWRFTTNQDVCLTPSVSGYWGQGTQVTVSS | binds | – | –
VHH_(GSDMD-3)-HA (VHH, also called VHH-HA; source: HEK293T, transfected (pCAGGS VHH-HA), in lysate; not shown: HA, C-terminal, kept) VHH: QVQLVETGGGLVQPGGSLRLSCAASGFTLDIYNMGWFRQAPGKEREGVSCISSRYGTSTYYADSVKGRFTISRDNAKNTVYLQMNNLKPEDTAVYYCATVSWRFTTNQDVCLTPSVSGYWGQGTQVTVSS | – | binds | –
VHH_(GSDMD-6) with C-terminal HA-His6 (VHH, pHEN6-based periplasmic expression vector, small scale (HA-His6); also called HA-His-tagged nanobody; source: E. coli WK6, periplasmic extract, purified (Ni-NTA, desalting); not shown: HA, C-terminal, kept; His6, C-terminal, kept) VHH: QVQLVETGGGLVQPGGSLRLSCTASGFIFSANQMNWVRQAPGKGLEWLSGISTRGDTTSYADSVKGRFTISRDNAKNTLYLQMNSLQPDDTAVYFCARVCIRGPEPKLRCDDWGQGTQVTVSS | binds | – | –
VHH_(GSDMD-1) with C-terminal HA-His6 (VHH, pHEN6-based periplasmic expression vector, small scale (HA-His6); also called HA-His-tagged nanobody; source: E. coli WK6, periplasmic extract, purified (Ni-NTA, desalting); not shown: HA, C-terminal, kept; His6, C-terminal, kept) VHH: QVQLVESGGALVQPGGSLRLSCSASGFTFSKYLMSWYRQAPGKERELVATITTAGGNTNYADSVKGRFTISRDNAKNTVYLQMNSLKPEDTAVYYCKASGGTIRTVNETYWGQGTQVTVSS | binds | – | –
VHH_(GSDMD-1) with a C-terminal HA tag, expressed in THP-1 cells (VHH, Same nanobody as m2 and m11, other vector and host; also called VHH_(GSDMD-1)-HA; source: THP-1, lentiviral transduction, constitutive expression (pEF1α), in lysate; not shown: HA, C-terminal, kept) VHH: QVQLVESGGALVQPGGSLRLSCSASGFTFSKYLMSWYRQAPGKERELVATITTAGGNTNYADSVKGRFTISRDNAKNTVYLQMNSLKPEDTAVYYCKASGGTIRTVNETYWGQGTQVTVSS | – | – | binding result [1]: binds
VHH_(GSDMD-1)-HA (VHH, also called VHH-HA; source: HEK293T, transfected (pCAGGS VHH-HA), in lysate; not shown: HA, C-terminal, kept) VHH: QVQLVESGGALVQPGGSLRLSCSASGFTFSKYLMSWYRQAPGKERELVATITTAGGNTNYADSVKGRFTISRDNAKNTVYLQMNSLKPEDTAVYYCKASGGTIRTVNETYWGQGTQVTVSS | – | binds | –
VHH_(GSDMD-5)-HA (VHH, also called VHH-HA; source: HEK293T, transfected (pCAGGS VHH-HA), in lysate; not shown: HA, C-terminal, kept) VHH: QVQLVETGGGLVQPGGSLRLSCAASGFVFSINPMNWYRQAPGKERELVAYISMRGSTTNYADSVKGRFIISRDNAKNTLYLQMNSLKPEDTAVYYCNAPSRSVWGQGTQVTVSS | – | binds | –
VHH_(GSDMD-5) with C-terminal HA-His6 (VHH, pHEN6-based periplasmic expression vector, small scale (HA-His6); also called HA-His-tagged nanobody; source: E. coli WK6, periplasmic extract, purified (Ni-NTA, desalting); not shown: HA, C-terminal, kept; His6, C-terminal, kept) VHH: QVQLVETGGGLVQPGGSLRLSCAASGFVFSINPMNWYRQAPGKERELVAYISMRGSTTNYADSVKGRFIISRDNAKNTLYLQMNSLKPEDTAVYYCNAPSRSVWGQGTQVTVSS | binds | – | –
